Results reported in the supplement of paper PMC5998384.

What was measured:
[1] = tested on: HeLa Kyoto; test: thermal stability score vs G1/S (z-score of summed log2 fold changes over temperatures); higher = more thermally stable than in G1/S
[2] = tested on: HeLa Kyoto; test: solubility in G1/S (NP-40 vs SDS abundance) (log2 ratio); higher = more soluble; settings: cell cycle stage: G1/S
[3] = tested on: HeLa Kyoto; test: melting temperature (median over replicates), in situ; higher = more thermally stable
[4] = tested on: HeLa Kyoto; test: solubility change mitosis vs G1/S (difference of NP-40 vs SDS log2 ratios) (log2 ratio difference); higher = more soluble in mitosis
[5] = cell cycle stage: early G1 (4.5 h after nocodazole release)
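Wherever melting temperature (median over replicates), in situ is given: HeLa Kyoto cells synchronized by double thymidine or nocodazole block, proteins quantified by TMT10plex mass spectrometry, three independent biological replicates.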
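Wherever solubility change mitosis vs G1/S (difference of NP-40 vs SDS log2 ratios) is given: synchronized HeLa Kyoto cells (double thymidine block for G1/S, nocodazole release for mitosis), protein amounts in NP-40 versus SDS lysates quantified by mass spectrometry, three biological replicates.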
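Wherever solubility in G1/S (NP-40 vs SDS abundance) is given: HeLa Kyoto cells arrested at G1/S by double thymidine block, proteins quantified by TMT10plex mass spectrometry in mild NP-40 versus SDS extracts, three biological replicates.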
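Wherever thermal stability score vs G1/S (z-score of summed log2 fold changes over temperatures) is given: synchronized HeLa Kyoto cells, proteins quantified by TMT10plex mass spectrometry, three biological replicates, mitosis taken 0.5 h after nocodazole release, G1/S directly after double thymidine block.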

| Sequence | thermal stability score [1, 5] | thermal stability score ([1]; cell cycle stage: mitosis) | solubility in G1/S (log2) [2] | melting temperature ([3]; cell cycle stage: G1/S) | melting temperature ([3]; cell cycle stage: mitosis) | solubility change mitosis (log2) [4] |
| --- | --- | --- | --- | --- | --- | --- |
| MAVATAAAVLAALGGALWLAARRFVGPRVQRLRRGGDPGLMHGKTVLITGANSGLGRATAAELLRLGARVIMGCRDRARAEEAAGQLRRELRQAAECGPEPGVSGVGELIVRELDLASLRSVRAFCQEMLQEEPRLDVLINNAGIFQCPYMKTEDGFEMQFGVNHLGHFLLTNLLLGLLKSSAPSRIVVVSSKLYKYGDINFDDLNSEQSYNKSFCYSRSKLANILFTRELARRLEGTNVTVNVLHPGIVRTNLGRHIHIPLLVKPLFNLVSWAFFKTPVEGAQTSIYLASSPEVEGVSGRYFGDCKEEELLPKAMDESVARKLWDISEVMVGLLK [RDH14] | 0.98 | 0.294 | -0.158 | 51.8 °C | 51.6 °C | 0.0299 |
| MAVESRVTQEEIKKEPEKPIDREKTCPLLLRVFTTNNGRHHRMDEFSRGNVPSSELQIYTWMDATLKELTSLVKEVYPEARKKGTHFNFAIVFTDVKRPGYRVKEIGSTMSGRKGTDDSMTLQSQKFQIGDYLDIAITPPNRAPPPSGRMRPY [SAP18] | 0.467 | 3.26 | -0.67 | 47.5 °C | 49.7 °C | 0.699 |
| MAVETLSPDWEFDRVDDGSQKIHAEVQLKNYGKFLEEYTSQLRRIEDALDDSIGDVWDFNLDPIALKLLPYEQSSLLELIKTENKVLNKVITVYAALCCEIKKLKYEAETKFYNGLLFYGEGATDASMVEGDCQIQMGRFISFLQELSCFVTRCYEVVMNVVHQLAALYISNKIAPKIIETTGVHFQTMYEHLGELLTVLLTLDEIIDNHITLKDHWTMYKRLLKSVHHNPSKFGIQEEKLKPFEKFLLKLEGQLLDGMIFQACIEQQFDSLNGGVSVSKNSTFAEEFAHSIRSIFANVEAKLGEPSEIDQRDKYVGICGLFVLHFQIFRTIDKKFYKSLLDICKKVPAITLTANIIWFPDNFLIQKIPAAAKLLDRKSLQAIKIHRDTFLQQKAQSLTKDVQSYYVFVSSWMMKMESILSKEQRMDKFAEDLTNRCNVFIQGFLYAYSISTIIKTTMNLYMSMQKPMTKTSVKALCRLVELLKAIEHMFYRRSMVVADSVSHITQHLQHQALHSISVAKKRVISDKKYSEQRLDVLSALVLAENTLNGPSTKQRRLIVSLALSVGTQMKTFKDEELFPLQVVMKKLDLISELRERVQTQCDCCFLYWHRAVFPIYLDDVYENAVDAARLHYMFSALRDCVPAMMHARHLESYEILLDCYDKEIMEILNEHLLDKLCKEIEKDLRLSVHTHLKLDDRNPFKVGMKDLALFFSLNPIRFFNRFIDIRAYVTHYLDKTFYNLTTVALHDWATYSEMRNLATQRYGLVMTEAHLPSQTLEQGLDVLEIMRNIHIFVSRYLYNLNNQIFIERTSNNKHLNTINIRHIANSIRTHGTGIMNTTVNFTYQFLKKKFYIFSQFMYDEHIKSRLIKDIRFFREIKDQNDHKYPFDRAEKFNRGIRKLGVTPEGQSYLDQFRQLISQIGNAMGYVRMIRSGGLHCSSNAIRFVPDLEDIVNFEELVKEEGLAEETLKAARHLDSVLSDHTRNSAEGTEYFKMLVDVFAPEFRRPKNIHLRNFYIIVPPLTLNFVEHSISCKEKLNKKNKIGAAFTDDGFAMGVAYILKLLDQYREFDSLHWFQSVREKYLKEIRAVAKQQNVQSASQDEKLLQTMNLTQKRLDVYLQEFELLYFSLSSARIFFRADKTAAEENQEKKEKEEETKTSNGDLSDSTVSADPVVK [KIAA1033] | 0.475 | 0.963 | -0.393 | 49.7 °C | 49.7 °C | -0.0953 |
| MAVFRSGLLVLTTPLASLAPRLASILTSAARLVNHTLYVHLQPGMSLEGPAQPQSSPVQATFEVLDFITHLYAGADVHRHLDVRILLTNIRTKSTFLPPLPTSVQNLAHPPEVVLTDFQTLDGSQYNPVKQQLVRYATSCYSCCPRLASVLLYSDYGIGEVPVEPLDVPLPSTIRPASPVAGSPKQPVRGYYRGAVGGTFDRLHNAHKVLLSVACILAQEQLVVGVADKDLLKSKLLPELLQPYTERVEHLSEFLVDIKPSLTFDVIPLLDPYGPAGSDPSLEFLVVSEETYRGGMAINRFRLENDLEELALYQIQLLKDLRHTENEEDKVSSSSFRQRMLGNLLRPPYERPELPTCLYVIGLTGISGSGKSSIAQRLKGLGAFVIDSDHLGHRAYAPGGPAYQPVVEAFGTDILHKDGIINRKVLGSRVFGNKKQLKILTDIMWPIIAKLAREEMDRAVAEGKRVCVIDAAVLLEAGWQNLVHEVWTAVIPETEAVRRIVERDGLSEAAAQSRLQSQMSGQQLVEQSHVVLSTLWEPHITQRQVEKAWALLQKRIPKTHQALD [COASY] | 2.77 | 4.34 | 0.236 | 48.1 °C | 48.8 °C | -0.14 |
| MAVLAALLRSGARSRSPLLRRLVQEIRYVERSYVSKPTLKEVVIVSATRTPIGSFLGSLSLLPATKLGSIAIQGAIEKAGIPKEEVKEAYMGNVLQGGEGQAPTRQAVLGAGLPISTPCTTINKVCASGMKAIMMASQSLMCGHQDVMVAGGMESMSNVPYVMNRGSTPYGGVKLEDLIVKDGLTDVYNKIHMGSCAENTAKKLNIARNEQDAYAINSYTRSKAAWEAGKFGNEVIPVTVTVKGQPDVVVKEDEEYKRVDFSKVPKLKTVFQKENGTVTAANASTLNDGAAALVLMTADAAKRLNVTPLARIVAFADAAVEPIDFPIAPVYAASMVLKDVGLKKEDIAMWEVNEAFSLVVLANIKMLEIDPQKVNINGGAVSLGHPIGMSGARIVGHLTHALKQGEYGLASICNGGGGASAMLIQKL [ACAT1] | -1.2 | 0.833 | 0.493 | 54.5 °C | 54.8 °C | -0.0153 |
| MAVPGDAARVRDKPVHSGVSQAPTAGRDCHHRADPASPRDSGCRGCWGDLVLQPLRSSRKLSSALCAGSLSFLLALLVRLVRGEVGCDLEQCKEAAAAEEEEAAPGAEGGVFPGPRGGAPGGGARLSPWLQPSALLFSLLCAFFWMGLYLLRAGVRLPLAVALLAACCGGEALVQIGLGVGEDHLLSLPAAGVVLSCLAAATWLVLRLRLGVLMIALTSAVRTVSLISLERFKVAWRPYLAYLAGVLGILLARYVEQILPQSAEAAPREHLGSQLIAGTKEDIPVFKRRRRSSSVVSAEMSGCSSKSHRRTSLPCIPREQLMGHSEWDHKRGPRGSQSSGTSITVDIAVMGEAHGLITDLLADPSLPPNVCTSLRAVSNLLSTQLTFQAIHKPRVNPVTSLSENYTCSDSEESSEKDKLAIPKRLRRSLPPGLLRRVSSTWTTTTSATGLPTLEPAPVRRDRSTSIKLQEAPSSSPDSWNNPVMMTLTKSRSFTSSYAISAANHVKAKKQSRPGALAKISPLSSPCSSPLQGTPASSLVSKISAVQFPESADTTAKQSLGSHRALTYTQSAPDLSPQILTPPVICSSCGRPYSQGNPADEPLERSGVATRTPSRTDDTAQVTSDYETNNNSDSSDIVQNEDETECLREPLRKASACSTYAPETMMFLDKPILAPEPLVMDNLDSIMEQLNTWNFPIFDLVENIGRKCGRILSQVSYRLFEDMGLFEAFKIPIREFMNYFHALEIGYRDIPYHNRIHATDVLHAVWYLTTQPIPGLSTVINDHGSTSDSDSDSGFTHGHMGYVFSKTYNVTDDKYGCLSGNIPALELMALYVAAAMHDYDHPGRTNAFLVATSAPQAVLYNDRSVLENHHAAAAWNLFMSRPEYNFLINLDHVEFKHFRFLVIEAILATDLKKHFDFVAKFNGKVNDDVGIDWTNENDRLLVCQMCIKLADINGPAKCKELHLQWTDGIVNEFYEQGDEEASLGLPISPFMDRSAPQLANLQESFISHIVGPLCNSYDSAGLMPGKWVEDSDESGDTDDPEEEEEEAPAPNEEETCENNESPKKKTFKRRKIYCQITQHLLQNHKMWKKVIEEEQRLAGIENQSLDQTPQSHSSEQIQAIKEEEEEKGKPRGEEIPTQKPDQ [PDE3A] | -2.5 | -4.37 | 0.0669 | 51.8 °C | 49.6 °C | -0.179 |
| MAVTITLKTLQQQTFKIRMEPDETVKVLKEKIEAEKGRDAFPVAGQKLIYAGKILSDDVPIRDYRIDEKNFVVVMVTKTKAGQGTSAPPEASPTAAPESSTSFPPAPTSGMSHPPPAAREDKSPSEESAPTTSPESVSGSVPSSGSSGREEDAASTLVTGSEYETMLTEIMSMGYERERVVAALRASYNNPHRAVEYLLTGIPGSPEPEHGSVQESQVSEQPATEAAGENPLEFLRDQPQFQNMRQVIQQNPALLPALLQQLGQENPQLLQQISRHQEQFIQMLNEPPGELADISDVEGEVGAIGEEAPQMNYIQVTPQEKEAIERLKALGFPESLVIQAYFACEKNENLAANFLLSQNFDDE [RAD23A] | -1.83 | -1.48 | 0.0728 | 56.3 °C | 55.5 °C | 0.0994 |
| MAVVIRLQGLPIVAGTMDIRHFFSGLTIPDGGVHIVGGELGEAFIVFATDEDARLGMMRTGGTIKGSKVTLLLSSKTEMQNMIELSRRRFETANLDIPPANASRSGPPPSSGMSSRVNLPTTVSNFNNPSPSVVTATTSVHESNKNIQTFSTASVGTAPPNMGASFGSPTFSSTVPSTASPMNTVPPPPIPPIPAMPSLPPMPSIPPIPVPPPVPTLPPVPPVPPIPPVPSVPPMTPLPPMSGMPPLNPPPVAPLPAGMNGSGAPMNLNNNLNPMFLGPLNPVNPIQMNSQSSVKPLPINPDDLYVSVHGMPFSAMENDVRDFFHGLRVDAVHLLKDHVGRNNGNGLVKFLSPQDTFEALKRNRMLMIQRYVEVSPATERQWVAAGGHITFKQNMGPSGQTHPPPQTLPRSKSPSGQKRSRSRSPHEAGFCVYLKGLPFEAENKHVIDFFKKLDIVEDSIYIAYGPNGKATGEGFVEFRNEADYKAALCRHKQYMGNRFIQVHPITKKGMLEKIDMIRKRLQNFSYDQREMILNPEGDVNSAKVCAHITNIPFSITKMDVLQFLEGIPVDENAVHVLVDNNGQGLGQALVQFKNEDDARKSERLHRKKLNGREAFVHVVTLEDMREIEKNPPAQGKKGLKMPVPGNPAVPGMPNAGLPGVGLPSAGLPGAGLPSTGLPGSAITSAGLPGAGMPSAGIPSAGGEEHAFLTVGSKEANNGPPFNFPGNFGGSNAFGPPIPPPGLGGGAFGDARPGMPSVGNSGLPGLGLDVPGFGGGPNNLSGPSGFGGGPQNFGNGPGSLGGPPGFGSGPPGLGSAPGHLGGPPAFGPGPGPGPGPGPIHIGGPPGFASSSGKPGPTVIKVQNMPFTVSIDEILDFFYGYQVIPGSVCLKYNEKGMPTGEAMVAFESRDEATAAVIDLNDRPIGSRKVKLVLG [RBM12] | 1.03 | 4.25 | 0.344 | 48.7 °C | 49.2 °C | -0.147 |
| MAVVPASLSGQDVGSFAYLTIKDRIPQILTKVIDTLHRHKSEFFEKHGEEGVEAEKKAISLLSKLRNELQTDKPFIPLVEKFVDTDIWNQYLEYQQSLLNESDGKSRWFYSPWLLVECYMYRRIHEAIIQSPPIDYFDVFKESKEQNFYGSQESIIALCTHLQQLIRTIEDLDENQLKDEFFKLLQISLWGNKCDLSLSGGESSSQNTNVLNSLEDLKPFILLNDMEHLWSLLSNCKKTREKASATRVYIVLDNSGFELVTDLILADFLLSSELATEVHFYGKTIPWFVSDTTIHDFNWLIEQVKHSNHKWMSKCGADWEEYIKMGKWVYHNHIFWTLPHEYCAMPQVAPDLYAELQKAHLILFKGDLNYRKLTGDRKWEFSVPFHQALNGFHPAPLCTIRTLKAEIQVGLQPGQGEQLLASEPSWWTTGKYGIFQYDGPL [ARMT1] | 1.02 | 1.91 | 0.0146 | 49.6 °C | 49 °C | -0.15 |
| MAWRGWAQRGWGCGQAWGASVGGRSCEELTAVLTPPQLLGRRFNFFIQQKCGFRKAPRKVEPRRSDPGTSGEAYKRSALIPPVEETVFYPSPYPIRSLIKPLFFTVGFTGCAFGSAAIWQYESLKSRVQSYFDGIKADWLDSIRPQKEGDFRKEINKWWNNLSDGQRTVTGIIAANVLVFCLWRVPSLQRTMIRYFTSNPASKVLCSPMLLSTFSHFSLFHMAANMYVLWSFSSSIVNILGQEQFMAVYLSAGVISNFVSYVGKVATGRYGPSLGASGAIMTVLAAVCTKIPEGRLAIIFLPMFTFTAGNALKAIIAMDTAGMILGWKFFDHAAHLGGALFGIWYVTYGHELIWKNREPLVKIWHEIRTNGPKKGGGSK [PARL] | -0.187 | -2.36 | -0.0323 | 54.9 °C | 55.8 °C | -0.267 |
